This note sets out measurements from US20240158500A1 (UCL BUSINESS, published 2024).

The target of assay [1] is human CD160, GPI-anchored isoform, on engineered cells (SupT1, 293T) (human) (UniProt O95971). The experiment in a line: flow cytometry, 293T cells transiently transfected with pVAC2 human CD160; the same quadrant on non-transfected 293T cells prints 0.071.
Assay [2] has the same target. The experiment in a line: flow cytometry, BY55-IgM-PE. The thick histogram (SupT1 CD160) peaks at about 10^4, the thin one (SupT1 negative) below 10^2 [Continued) B].
The target is the same in assay [3]. Kind of assay: flow cytometry, 293T cells transiently transfected with pVAC2 human CD160; the same quadrant on non-transfected 293T cells prints 1.53.

In turn, commercial anti-CD160 antibody BY55 gave a Q2 (anti-CD160-PE positive, blank channel positive), share of cells in assay [1] of 14%. This substance showed a CD160+ (gate, share of cells) in assay [2] of 92.9. This substance also had a Q1 (anti-CD160-PE positive, blank channel negative), share of cells in assay [3] of 66%.
